Test results taken from article PMC4866720, “A Genetic Screen Identifies a Requirement for Cysteine-Rich–Receptor-Like Kinases in Rice NH1 (OsNPR1)-Mediated Immunity”.

What was measured:
[1] = molecular target: T1, TGA2.1 (Oryza sativa (rice), UniProt Q7X993 1-334); test: competition; EMSA competitor 5X, 20X, 100X against biotin-wt probe; EMSA with biotin probe, chemiluminescent detection; buffer, salt, pH and temperature not stated; conditions: protein: recombinant; chain copies: 2
T1 sequence: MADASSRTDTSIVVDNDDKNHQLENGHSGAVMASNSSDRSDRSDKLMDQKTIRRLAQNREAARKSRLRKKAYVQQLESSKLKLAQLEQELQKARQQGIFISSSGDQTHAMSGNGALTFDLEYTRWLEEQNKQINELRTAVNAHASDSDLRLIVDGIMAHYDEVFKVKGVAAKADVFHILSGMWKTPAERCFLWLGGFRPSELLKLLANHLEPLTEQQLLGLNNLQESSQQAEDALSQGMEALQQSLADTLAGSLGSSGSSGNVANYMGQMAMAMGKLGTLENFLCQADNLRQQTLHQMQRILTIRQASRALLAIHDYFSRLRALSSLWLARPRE

[2] = molecular target: T1, TGA2.1; test: EMSA; competed by unlabeled wt oligonucleotide (5X, 20X, 100X tested); EMSA with biotin probe, chemiluminescent detection; buffer, salt, pH and temperature not stated; conditions: protein: recombinant; chain copies: 2; label: 5'-biotin on top strand (probe)

B1: CRK10 promoter TGA site mt competitor (dsDNA)
DNA 1: CTCTTTGTGGTGTTGTTCTTC
DNA 2: GAAGAACAACACCACAAAGAG
- binding result [1]: no binding

B2: CRK10 promoter TGA site wt probe (dsDNA)
DNA 1: CTCTTTGTGACGTTGTTCTTC
DNA 2: GAAGAACAACGTCACAAAGAG
- binding result [2]: binds
